Earlier results on five compounds are cited in patent publication US20070140974A1, “Targeted nanoparticles for magnetic resonance imaging” (General Electric Company, priority 2005, published 2007).

For series [1] the following is noted: room temperature, 1.5 Tesla magnetic field.
The target in another series is uPAR (Homo sapiens, UniProt Q03405).
Chain of uPAR (Q03405 23-305): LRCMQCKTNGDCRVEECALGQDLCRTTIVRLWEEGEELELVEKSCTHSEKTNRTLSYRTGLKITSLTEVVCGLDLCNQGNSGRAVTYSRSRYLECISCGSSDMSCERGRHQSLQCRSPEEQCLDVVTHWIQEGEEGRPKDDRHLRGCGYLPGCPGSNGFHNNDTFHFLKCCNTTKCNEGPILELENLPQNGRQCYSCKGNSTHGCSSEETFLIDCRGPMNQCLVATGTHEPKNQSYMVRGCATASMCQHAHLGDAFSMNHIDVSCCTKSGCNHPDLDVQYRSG

For the compound `O=C([O-])CN(CCN(CC(=O)[O-])CC(=O)O)CCN(CC(=O)[O-])CC(=O)O.[Gd+3]` [Gd-DTPA], the R1 relaxivity in series [1] was 3 mM⁻¹ s⁻¹.
AEFFKLGPNGYVYLHSA: the “binding of uPAR and inhibition of integrin or vitronectin binding” value in the series with uPAR was “capable of binding uPAR and inhibiting binding of vitronectin”.
With AELDLSTFYDIQYLLRT, the “binding of uPAR and inhibition of integrin or vitronectin binding” value with uPAR is “capable of binding uPAR and inhibiting binding of vitronectin”.
With AEPVYQYELDSYLRSYY, the “binding of uPAR and inhibition of integrin or vitronectin binding” value with uPAR is “capable of binding uPAR and inhibiting binding of vitronectin”.
Regarding AESTYHHLSLGYMYTLN, the “binding of uPAR and inhibition of integrin or vitronectin binding” value with uPAR is “capable of binding uPAR and inhibiting binding of integrin”.
